Reference: US20130266517A1 (published 2013)

What was measured:
[1] = biological target: T1, alpha-synuclein (natural human wildtype alpha-synuclein) (human, UniProt P37840 1-140); assay: Biacore (SPR) full kinetic analysis
Procedure: Biacore full binding kinetic analysis of antibodies were carried out using Biacore. Detailed binding kinetic parameters (association rate, ka, dissociation rate, kd, and affinity constant, KD) were determined for murine 1H7 (FIG. 3A), chimeric 1H7 (FIG. 3B) and humanized 1H7 (Hu1H7VHv3-Hu1H7VLv3, Hu1H7VHv3-Hu1H7VLv1, Hu1H7VHv4-Hu1H7VLv1) antibodies (FIG. 3C).

[2] = biological target: T1, alpha-synuclein (natural human wildtype …); assay: BLI, ForteBio Octet QK; apparent ka
Procedure: (§1) Binding kinetic of humanized 1H7 antibodies were also measured by bio-layer interferometry (BLI) using a ForteBio Octet QK instrument (ForteBio, Menlo Park, Calif.). Detailed binding kinetic parameters (association rate, apparent ka, dissociation rate, apparent kd, and affinity constant, apparent KD) were determined for chimeric 1H7 and various humanized 1H7 antibodies (Tables 6-7, FIGS. 4A-C). Apparent ka, apparent kd and apparent KD are binding kinetic parameters obtained using ForteBio assay formats. These parameters differ from ka, kd and KD measured using Biocore assays due to, e.g., avidity effects associated with ForteBio assay formats.

[3] = biological target: T1, alpha-synuclein (natural human wildtype …); assay: BLI, ForteBio Octet QK; apparent kd
Procedure: as §1

[4] = biological target: T1, alpha-synuclein (natural human wildtype …); assay: BLI, ForteBio Octet QK; apparent KD
Procedure: as §1

Binder	Kd [1] [nM]	koff [1] [s⁻¹]	kon [1] [M⁻¹ s⁻¹]	kon [2] [M⁻¹ s⁻¹]	koff [3] [s⁻¹]	Kd [4] [nM]
Murine 1H7 (antibody, mouse IgG1, V domains shown, Mouse IgG1; also called m1H7; mouse 1H7) VH: VQLQQSGPELVKPGTSVKISCKASGYSFTSYYIHWVKQSPGQGLEWIGWIYPGSGNTKYSEKFKGKATLTADTSSSTAYMQLSSLTSEDSAVYFCARDGCYGFAYWGQGTLVTVS VL: DIVLTQSPASLAVSLGQRATISCKASQSVDYDGDSYMNWYQQKPGQPPKFLICAASNLESGIPARFSGSGSGTDFTLNIHPVEEEDAATYYCQQSNEDPFTFGSGTKLEIK	9.5	0.0096	1e+06			
Humanized 1H7 H2L1 (Hu1H7VHv2-Hu1H7VLv1) (antibody, V domains shown) VH: QVQLVQSGAEVKKPGASVKVSCKASGYSFTSYYIHWVRQAPGQGLEWIGWIYPGSGNTKYSEKFKGRATLTADTSTSTAYMELRSLRSDDTAVYFCARDGCYGFAYWGQGTLVTVSS VL: DIQLTQSPSSLSASVGDRVTITCKASQSVDYDGDSYMNWYQQKPGKAPKFLICAASNLESGVPSRFSGSGSGTDFTLTISSLQPEDAATYYCQQSNEDPFTFGQGTKLEIK				580000	4.2e-06	0.0072
Humanized 1H7 H2L2 (Hu1H7VHv2-Hu1H7VLv2) (antibody, V domains shown) VH: QVQLVQSGAEVKKPGASVKVSCKASGYSFTSYYIHWVRQAPGQGLEWIGWIYPGSGNTKYSEKFKGRATLTADTSTSTAYMELRSLRSDDTAVYFCARDGCYGFAYWGQGTLVTVSS VL: DIQLTQSPSSLSASVGDRVTITCKASQSVDYDGDSYMNWYQQKPGKAPKFLIYAASNLESGVPSRFSGSGSGTDFTLTISSLQPEDAATYYCQQSNEDPFTFGQGTKLEIK				2.3e+06	0.0046	2
Humanized 1H7 H5L1 (Hu1H7VHv5-Hu1H7VLv1) (antibody, V domains shown) VH: QVQLVQSGAEVKKPGASVKVSCKASGYTFTSYYIHWVRQAPGQGLEWMGWIYPGSGNTKYSEKFKGRATMTADTSTSTAYMELRSLRSDDTAVYYCARDGSYGFAYWGQGTLVTVSS VL: DIQLTQSPSSLSASVGDRVTITCKASQSVDYDGDSYMNWYQQKPGKAPKFLICAASNLESGVPSRFSGSGSGTDFTLTISSLQPEDAATYYCQQSNEDPFTFGQGTKLEIK	64	0.056	880000			
Humanized 1H7 H5L2 (Hu1H7VHv5-Hu1H7VLv2) (antibody, V domains shown) VH: QVQLVQSGAEVKKPGASVKVSCKASGYTFTSYYIHWVRQAPGQGLEWMGWIYPGSGNTKYSEKFKGRATMTADTSTSTAYMELRSLRSDDTAVYYCARDGSYGFAYWGQGTLVTVSS VL: DIQLTQSPSSLSASVGDRVTITCKASQSVDYDGDSYMNWYQQKPGKAPKFLIYAASNLESGVPSRFSGSGSGTDFTLTISSLQPEDAATYYCQQSNEDPFTFGQGTKLEIK				520000	0.0021	4
Humanized 1H7 H5L3 (Hu1H7VHv5-Hu1H7VLv3) (antibody, V domains shown) VH: QVQLVQSGAEVKKPGASVKVSCKASGYTFTSYYIHWVRQAPGQGLEWMGWIYPGSGNTKYSEKFKGRATMTADTSTSTAYMELRSLRSDDTAVYYCARDGSYGFAYWGQGTLVTVSS VL: DIQLTQSPSSLSASVGDRVTITCKASQSVDYDGDSYMNWYQQKPGKAPKFLICAASNLESGVPSRFSGSGSGTDFTLTISSLQPEDFATYYCQQSNEDPFTFGQGTKLEIK				760000	0.002	2.6
Humanized 1H7 H4L4 (Hu1H7VHv4-Hu1H7VLv4) (antibody, V domains shown) VH: QVQLVQSGAEVKKPGASVKVSCKASGYSFTSYYIHWVRQAPGQGLEWIGWIYPGSGNTKYSEKFKGRATLTADTSTSTAYMELRSLRSDDTAVYFCARDGSYGFAYWGQGTLVTVSS VL: DIQLTQSPSSLSASVGDRVTITCKASQSVDYDGDSYMNWYQQKPGKAPKFLIYAASNLESGVPSRFSGSGSGTDFTLTISSLQPEDFATYYCQQSNEDPFTFGQGTKLEIK				520000	0.0023	4.4
Humanized 1H7 H5L4 (Hu1H7VHv5-Hu1H7VLv4) (antibody, V domains shown) VH: QVQLVQSGAEVKKPGASVKVSCKASGYTFTSYYIHWVRQAPGQGLEWMGWIYPGSGNTKYSEKFKGRATMTADTSTSTAYMELRSLRSDDTAVYYCARDGSYGFAYWGQGTLVTVSS VL: DIQLTQSPSSLSASVGDRVTITCKASQSVDYDGDSYMNWYQQKPGKAPKFLIYAASNLESGVPSRFSGSGSGTDFTLTISSLQPEDFATYYCQQSNEDPFTFGQGTKLEIK				1.6e+06	0.0019	1.2
Humanized 1H7 H1L3 (Hu1H7VHv1-Hu1H7VLv3) (antibody, V domains shown) VH: QVQLVQSGAELKKPGASVKVSCKASGYSFTSYYIHWVKQAPGQGLEWIGWIYPGSGNTKYSEKFKGRATLTADTSTSTAYMELRSLRSDDTAVYFCARDGCYGFAYWGQGTLVTVSS VL: DIQLTQSPSSLSASVGDRVTITCKASQSVDYDGDSYMNWYQQKPGKAPKFLICAASNLESGVPSRFSGSGSGTDFTLTISSLQPEDFATYYCQQSNEDPFTFGQGTKLEIK				220000	0.00064	2.9
Humanized 1H7 H3L1 (Hu1H7VHv3-Hu1H7VLv1) (antibody, V domains shown) VH: QVQLVQSGAEVKKPGASVKVSCKASGYTFTSYYIHWVRQAPGQGLEWMGWIYPGSGNTKYSEKFKGRATMTADTSTSTAYMELRSLRSDDTAVYYCARDGCYGFAYWGQGTLVTVSS VL: DIQLTQSPSSLSASVGDRVTITCKASQSVDYDGDSYMNWYQQKPGKAPKFLICAASNLESGVPSRFSGSGSGTDFTLTISSLQPEDAATYYCQQSNEDPFTFGQGTKLEIK	12	0.013	1.1e+06			
Humanized 1H7 H1L1 (Hu1H7VHv1-Hu1H7VLv1) (antibody, V domains shown) VH: QVQLVQSGAELKKPGASVKVSCKASGYSFTSYYIHWVKQAPGQGLEWIGWIYPGSGNTKYSEKFKGRATLTADTSTSTAYMELRSLRSDDTAVYFCARDGCYGFAYWGQGTLVTVSS VL: DIQLTQSPSSLSASVGDRVTITCKASQSVDYDGDSYMNWYQQKPGKAPKFLICAASNLESGVPSRFSGSGSGTDFTLTISSLQPEDAATYYCQQSNEDPFTFGQGTKLEIK				250000	0.0012	4.8
Humanized 1H7 H1L2 (Hu1H7VHv1-Hu1H7VLv2) (antibody, V domains shown) VH: QVQLVQSGAELKKPGASVKVSCKASGYSFTSYYIHWVKQAPGQGLEWIGWIYPGSGNTKYSEKFKGRATLTADTSTSTAYMELRSLRSDDTAVYFCARDGCYGFAYWGQGTLVTVSS VL: DIQLTQSPSSLSASVGDRVTITCKASQSVDYDGDSYMNWYQQKPGKAPKFLIYAASNLESGVPSRFSGSGSGTDFTLTISSLQPEDAATYYCQQSNEDPFTFGQGTKLEIK				1.6e+06	0.009	5.8
Humanized 1H7 H4L3 (Hu1H7VHv4-Hu1H7VLv3) (antibody, V domains shown) VH: QVQLVQSGAEVKKPGASVKVSCKASGYSFTSYYIHWVRQAPGQGLEWIGWIYPGSGNTKYSEKFKGRATLTADTSTSTAYMELRSLRSDDTAVYFCARDGSYGFAYWGQGTLVTVSS VL: DIQLTQSPSSLSASVGDRVTITCKASQSVDYDGDSYMNWYQQKPGKAPKFLICAASNLESGVPSRFSGSGSGTDFTLTISSLQPEDFATYYCQQSNEDPFTFGQGTKLEIK				740000	0.002	2.7
Humanized 1H7 H4L1 (Hu1H7VHv4-Hu1H7VLv1) (antibody, V domains shown) VH: QVQLVQSGAEVKKPGASVKVSCKASGYSFTSYYIHWVRQAPGQGLEWIGWIYPGSGNTKYSEKFKGRATLTADTSTSTAYMELRSLRSDDTAVYFCARDGSYGFAYWGQGTLVTVSS VL: DIQLTQSPSSLSASVGDRVTITCKASQSVDYDGDSYMNWYQQKPGKAPKFLICAASNLESGVPSRFSGSGSGTDFTLTISSLQPEDAATYYCQQSNEDPFTFGQGTKLEIK	33.9	0.033	970000			
Humanized 1H7 H3L3 (Hu1H7VHv3-Hu1H7VLv3) (antibody, V domains shown) VH: QVQLVQSGAEVKKPGASVKVSCKASGYTFTSYYIHWVRQAPGQGLEWMGWIYPGSGNTKYSEKFKGRATMTADTSTSTAYMELRSLRSDDTAVYYCARDGCYGFAYWGQGTLVTVSS VL: DIQLTQSPSSLSASVGDRVTITCKASQSVDYDGDSYMNWYQQKPGKAPKFLICAASNLESGVPSRFSGSGSGTDFTLTISSLQPEDFATYYCQQSNEDPFTFGQGTKLEIK	9	0.011	1.3e+06			
Humanized 1H7 H1L4 (Hu1H7VHv1-Hu1H7VLv4) (antibody, V domains shown) VH: QVQLVQSGAELKKPGASVKVSCKASGYSFTSYYIHWVKQAPGQGLEWIGWIYPGSGNTKYSEKFKGRATLTADTSTSTAYMELRSLRSDDTAVYFCARDGCYGFAYWGQGTLVTVSS VL: DIQLTQSPSSLSASVGDRVTITCKASQSVDYDGDSYMNWYQQKPGKAPKFLIYAASNLESGVPSRFSGSGSGTDFTLTISSLQPEDFATYYCQQSNEDPFTFGQGTKLEIK				1.8e+06	0.0058	3.3
Humanized 1H7 H4L2 (Hu1H7VHv4-Hu1H7VLv2) (antibody, V domains shown) VH: QVQLVQSGAEVKKPGASVKVSCKASGYSFTSYYIHWVRQAPGQGLEWIGWIYPGSGNTKYSEKFKGRATLTADTSTSTAYMELRSLRSDDTAVYFCARDGSYGFAYWGQGTLVTVSS VL: DIQLTQSPSSLSASVGDRVTITCKASQSVDYDGDSYMNWYQQKPGKAPKFLIYAASNLESGVPSRFSGSGSGTDFTLTISSLQPEDAATYYCQQSNEDPFTFGQGTKLEIK				1.2e+06	0.0021	1.7
